Assay results as given in paper PMC5722641 (Developmental Cell, 2017).

Target: purified Drosophila E2F1 (in vitro binding assay) (Drosophila, UniProt Q27368 1-805)
Experiment: in vitro binding assay

Chain of purified Drosophila E2F1 (in vitro binding assay) (Q27368 whole entry): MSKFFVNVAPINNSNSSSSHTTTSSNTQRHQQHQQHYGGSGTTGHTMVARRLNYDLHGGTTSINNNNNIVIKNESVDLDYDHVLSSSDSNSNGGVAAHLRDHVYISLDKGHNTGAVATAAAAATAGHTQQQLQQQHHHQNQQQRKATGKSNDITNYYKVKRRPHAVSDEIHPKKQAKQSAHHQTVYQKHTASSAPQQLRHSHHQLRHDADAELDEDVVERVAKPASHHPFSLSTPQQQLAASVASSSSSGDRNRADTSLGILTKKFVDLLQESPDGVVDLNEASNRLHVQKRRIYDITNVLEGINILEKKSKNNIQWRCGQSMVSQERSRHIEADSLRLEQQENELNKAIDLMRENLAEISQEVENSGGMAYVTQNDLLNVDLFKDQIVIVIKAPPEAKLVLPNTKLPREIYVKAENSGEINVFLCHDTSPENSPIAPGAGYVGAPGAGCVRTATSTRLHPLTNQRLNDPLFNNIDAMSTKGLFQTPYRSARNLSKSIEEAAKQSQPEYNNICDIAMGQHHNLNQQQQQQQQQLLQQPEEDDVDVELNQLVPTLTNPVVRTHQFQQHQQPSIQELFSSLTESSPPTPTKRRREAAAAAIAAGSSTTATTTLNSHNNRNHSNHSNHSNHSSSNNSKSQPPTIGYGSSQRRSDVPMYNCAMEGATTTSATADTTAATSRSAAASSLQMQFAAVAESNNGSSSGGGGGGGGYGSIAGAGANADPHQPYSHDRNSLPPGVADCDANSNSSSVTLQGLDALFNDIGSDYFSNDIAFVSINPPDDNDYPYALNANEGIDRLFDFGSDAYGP

B1: purified Drosophila Sd (in vitro binding assay) (natural protein)
chain: MKNITSSSTCSTGLLQLQNNLSCSELEVAEKTEQQAVGPGTIPSPWTPVNAGPPGALGSADTNGSMVDSKNLDVGDMSDDEKDLSSADAEGVWSPDIEQSFQEALSIYPPCGRRKIILSDEGKMYGRNELIARYIKLRTGKTRTRKQVSSHIQVLARRKLREIQAKIKVQFWQPGLQPSTSQDFYDYSIKPFPQPPYPAGKTSTAVSGDETGIPPSQLPWEGRAIATHKFRLLEFTAFMEIQRDEIYHRHLFVQLGGKPSFSDPLLETVDIRQIFDKFPEKSGGLKDLYEKGPQNAFYLVKCWADLNTDLTTGSETGDFYGVTSQYESNENVVLVCSTIVCSFGKQVVEKVESEYSRLENNRYVYRIQRSPMCEYMINFIQKLKNLPERYMMNSVLENFTILQVMRARETQETLLCIAYVFEVAAQNSGTTHHIYRLIKE
binding result: binds
